Data published in patent US20060052294A1 (CINCINNATI CHILDREN S HOSPITAL MEDICAL CENTER, published 2006).

Key:
human C5a receptor [1] = target: T1, human C5a receptor (human, UniProt P21730 1-350); experiment: cell-based or functional assay
T1 sequence (looked up): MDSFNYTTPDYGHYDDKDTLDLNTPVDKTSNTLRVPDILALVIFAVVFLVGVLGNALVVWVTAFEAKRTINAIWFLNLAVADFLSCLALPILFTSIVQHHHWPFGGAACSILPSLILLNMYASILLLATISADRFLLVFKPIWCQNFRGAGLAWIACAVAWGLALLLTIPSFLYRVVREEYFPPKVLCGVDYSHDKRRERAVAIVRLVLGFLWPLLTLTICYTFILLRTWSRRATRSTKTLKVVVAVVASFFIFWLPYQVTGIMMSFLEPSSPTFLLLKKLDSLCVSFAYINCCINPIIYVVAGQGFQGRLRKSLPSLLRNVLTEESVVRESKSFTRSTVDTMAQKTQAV

human C5a receptor [2] = target: T1, human C5a receptor; experiment: competition with 125I-rhC5a tracer on RBL cells stably transfected with human C5a receptor, on ice, filtration
Method: (§1) For competitive binding studies, 40 μl of a reaction mixture containing a constant amount of ¹²⁵I-rhC5a as tracer (≈17000 cpm) and increasing concentrations of unlabeled C5a muteins were incubated in a microtiter plate on ice. […] The binding reaction was started by adding 25 μl of ice-cold RBL-C5aR cell suspension. After incubation on ice for 30 min, cell bound and free ¹²⁵I-rhC5a were separated by filtration of 60 μl through a microtitration-membrane plate (Multiscreen™-HV; 0.45 μm, MAHV N45, Millipore) using a vacuum manifold (Millipore). […] Punched out membranes were counted in a γ-counter (Packard, Canberra). The plot of cell-bound ¹²⁵I-rhC5a versus concentration of unlabeled competitor yields the half-maximal inhibitory concentrations (IC₅₀) (cf. FIG. 3, Table 1).

human C5a receptor [3] = target: T1, human C5a receptor; experiment: competition with 125I-rhC5a on RBL cells stably transfected with human C5a receptor; reference rhC5a
Method: The values for rhC5a (“isolated” curve closest to the y-axis) are depicted as black circles, those for the mutein A8B as rhombi, for A8BLeu70 as triangles, for A8BLeu70Tyr73 as squares, for A8BArg as hexagons, for A8Bdel71-73 as dark-gray circles and those for A8BCys73 as light-gray circles.
as §1

B1: C5a-(1-66,Cys27Ala)-A8B-Del.71-73 (ligand)
chain: TLQKKIEEIAAKYKHSVVKKCCYDGAAVNNDETCEQRAARISLGPRCIKAFTECCVVASQLRANISFKRS
notes: also called C5a-(1-66, Cys27Ala)-FKRS-70; 67-FKRS-70
ED50 [nM] (N-acetyl-beta-D-glucosaminidase release from C5aR-RBL cells) (human C5a receptor [1]): > 4000 nM
ID50 [nM] (inhibition of N-acetyl-beta-D-glucosaminidase release from C5aR-RBL cells) (human C5a receptor [1]): 17.4 nM
IC50 (human C5a receptor [2]): 26.9 nM

B2: C5a-(1-66,Cys27Ala)-A8B-Lys69-Ala70 (ligand)
chain: TLQKKIEEIAAKYKHSVVKKCCYDGAAVNNDETCEQRAARISLGPRCIKAFTECCVVASQLRANISFKKALLR
ED50 [nM] (N-acetyl-beta-D-glucosaminidase release from C5aR-RBL cells) (human C5a receptor [1]): > 4000 nM
ID50 [nM] (inhibition of N-acetyl-beta-D-glucosaminidase release from C5aR-RBL cells) (human C5a receptor [1]): 60.8 nM

B3: C5a-(1-66,Cys27Ala)-A8B (ligand)
chain: TLQKKIEEIAAKYKHSVVKKCCYDGAAVNNDETCEQRAARISLGPRCIKAFTECCVVASQLRANISFKRSLLR
notes: Mutein of human C5a, expressed in the E. coli periplasm without a fusion partner and purified on mAb 561; also called C5aRA A8B; mutein A8B
ED50 [nM] (N-acetyl-beta-D-glucosaminidase release from C5aR-RBL cells) (human C5a receptor [1]): > 4000 nM
ID50 [nM] (inhibition of N-acetyl-beta-D-glucosaminidase release from C5aR-RBL cells) (human C5a receptor [1]): 22.3 nM
IC50 (human C5a receptor [2]): 35.4 nM

B4: C5a-(1-66,Cys27Ala)-A8B-Cys73 (ligand)
chain: TLQKKIEEIAAKYKHSVVKKCCYDGAAVNNDETCEQRAARISLGPRCIKAFTECCVVASQLRANISFKRSLLC
notes: also called Ab8-Cys73; 67-FKRSLLC-73
ED50 [nM] (N-acetyl-beta-D-glucosaminidase release from C5aR-RBL cells) (human C5a receptor [1]): > 4000 nM
ID50 [nM] (inhibition of N-acetyl-beta-D-glucosaminidase release from C5aR-RBL cells) (human C5a receptor [1]): 17.4 nM
IC50 (human C5a receptor [2]): 37.3 nM

B5: C5a-(1-66,Cys27Arg)-A8B (ligand)
chain: TLQKKIEEIAAKYKHSVVKKCCYDGARVNNDETCEQRAARISLGPRCIKAFTECCVVASQLRANISFKRSLLR
notes: also called A8B-Arg27; A8B Arg 27
ED50 [nM] (N-acetyl-beta-D-glucosaminidase release from C5aR-RBL cells) (human C5a receptor [1]): > 4000 nM
ID50 [nM] (inhibition of N-acetyl-beta-D-glucosaminidase release from C5aR-RBL cells) (human C5a receptor [1]): 17.5 nM
fold difference of IC50 against rhC5a (human C5a receptor [3]): 16 fold
IC50 (human C5a receptor [2]): 43.1 nM

B6: C5a-(1-66,Cys27Ala)-A8B-Asp69 (ligand)
chain: TLQKKIEEIAAKYKHSVVKKCCYDGAAVNNDETCEQRAARISLGPRCIKAFTECCVVASQLRANISFKDSLLR
notes: also called A8B-Arg69Asp
ED50 [nM] (N-acetyl-beta-D-glucosaminidase release from C5aR-RBL cells) (human C5a receptor [1]): 5.9 nM
IC50 (human C5a receptor [2]): 5.4 nM

B7: C5a-(1-66,Cys27Ala)-A8B-Leu70-Tyr73 (ligand)
chain: TLQKKIEEIAAKYKHSVVKKCCYDGAAVNNDETCEQRAARISLGPRCIKAFTECCVVASQLRANISFKRLLLY
notes: also called 67-FKRLLLY-73
ED50 [nM] (N-acetyl-beta-D-glucosaminidase release from C5aR-RBL cells) (human C5a receptor [1]): > 4000 nM
ID50 [nM] (inhibition of N-acetyl-beta-D-glucosaminidase release from C5aR-RBL cells) (human C5a receptor [1]): 8.8 nM
fold difference of IC50 against rhC5a (human C5a receptor [3]): 8 fold
IC50 (human C5a receptor [2]): 21.3 nM

B8: C5a-(1-66,Cys27Ala)-A8B-Leu70 (ligand)
chain: TLQKKIEEIAAKYKHSVVKKCCYDGAAVNNDETCEQRAARISLGPRCIKAFTECCVVASQLRANISFKRLLLR
notes: also called 67-FKRLLLR-73
ED50 [nM] (N-acetyl-beta-D-glucosaminidase release from C5aR-RBL cells) (human C5a receptor [1]): > 4000 nM
ID50 [nM] (inhibition of N-acetyl-beta-D-glucosaminidase release from C5aR-RBL cells) (human C5a receptor [1]): 7.9 nM
IC50 (human C5a receptor [2]): 23.1 nM

B9: C5a-(1-66,Cys27Ala)-A8B-Ala69 (ligand)
chain: TLQKKIEEIAAKYKHSVVKKCCYDGAAVNNDETCEQRAARISLGPRCIKAFTECCVVASQLRANISFKASLLR
notes: also called A8B-Arg69Ala
ED50 [nM] (N-acetyl-beta-D-glucosaminidase release from C5aR-RBL cells) (human C5a receptor [1]): 36.8 nM
IC50 (human C5a receptor [2]): 30.1 nM

B10: recombinant human C5a (ligand)
chain: TLQKKIEEIAAKYKHSVVKKCCYDGACVNNDETCEQRAARISLGPRCIKAFTECCVVASQLRANISHKDMQLGR
notes: 74-residue recombinant human C5a; also called rhC5a; rC5a
ED50 [nM] (N-acetyl-beta-D-glucosaminidase release from C5aR-RBL cells) (human C5a receptor [1]): 3.5 nM
IC50 (human C5a receptor [2]): 2.7 nM
